Reference: US10633429B2, “Human antibody κ type light chain complex-containing composition and method for producing same” (JAPAN SCIENCE AND TECHNOLOGY AGENCY, priority 2013, dated 2020)

Tests used:
[1] = test system: A549 cell line (human alveolar epithelial cancer cell line); assay: Cytotoxicity assay (WST assay), A549 cell line; assay type: cell-based; conditions: Example 6, 24 h, light chain not bound with copper ions set to 100%
Procedure: (§1) The cytotoxicity of each complex-containing composition to cancer cells was tested using cancer cell lines. As the cancer cell lines, A549 cell line (human alveolar epithelial cancer cell line), ES-2 cell line (human ovarian cancer cell line), MOLT-4 cell line (human acute lymphoblastic leukemia T cell line), BxPC-3 cell line (human pancreatic adenocarcinoma cell line), SNU-1 cell line (human metastatic gastric cancer cell line), and PANC-1 cell line (human pancreatic cancer cell line) were used.
(§2) All of these cell lines were purchased from ATCC (American Type Culture Collection). Here, the A549 cell line was cultured using a 10% FCS (fetal calf serum)-containing F-12K culture medium by a general method, the ES-2 cell line was cultured using a 10% FCS-containing McCoy's 5A culture medium by a general method, each of the MOLT-4 cell line, SNU-1 cell line, and BxPC-3 cell line was cultured using a 10% FCS-containing RPMI-1640 culture medium by a general method, the PANC-1 cell line was cultured using a 10% FCS-containing DMEM culture medium by a general method, and the WI-38 cell line was cultured using a 10% FCS-containing EMEM culture medium by a general method.
(§3) First, after being recovered by thawing the frozen cancer cell lines, the recovered cancer cell lines were seeded in a 96-well plate by 100 μL to be 5×10^3 cells/well (the number of seeds was appropriately adjusted by cell species). After culturing was carried out at 37° C. for 24 hours, a culture medium to be added to the 96-well plate was removed by decantation, and then each complex-containing composition prepared at a concentration of about 1 mg/mL was added to each well by 100 μL. After culturing was carried out for 24 hours or 48 hours from the addition of the complex-containing composition (after cells are planted and cultivated for 48 hours or 72 hours), a WST-1 reagent (manufactured by Roche Inc.) was added to each well by 10 μL and incubated for 1, 1.5, and 2 hours to form a formazan dye, and then the absorbance (Abs at 450 nm) of the formazan dye was measured (WST assay). As a control, a human antibody κ type light chain not bound to metal ions or PBS was added instead of the complex-containing composition and cultured for 24 hours or 48 hours, and then WST assay was carried out. Based on the results of the obtained absorbance, the cell survival rate of the well added with the human antibody κ type light chain not bound to metal ions or the well added with the PBS was set to 100%, and the cell survival rate of each well was determined, so as to evaluate the cytotoxicity of the added complex-containing composition.

[2] = test system: ES-2 cell line (human ovarian cancer cell line); assay: Cytotoxicity assay (WST assay), ES-2 cell line; assay type: cell-based; conditions: Example 6, 24 h, light chain not bound with copper ions set to 100%
Procedure: as §1, §2, §3

[3] = test system: MOLT-4 cell line (human acute lymphoblastic leukemia T cell line); assay: Cytotoxicity assay (WST assay), MOLT-4 cell line; assay type: cell-based; conditions: Example 6, 24 h, light chain not bound with copper ions set to 100%
Procedure: as §1, §2, §3
Meanwhile, in the case of the MOLT-4 cell line, from the time cells were seeded in the 96-well plate, each complex-containing composition prepared at a concentration of about 1 mg/mL was added to each well by 100 μL and cultured for 24 hours or 48 hours, and then WST assay was carried out.

[4] = test system: BxPC-3 cell line (human pancreatic adenocarcinoma cell line); assay: Cytotoxicity assay (WST assay), BxPC-3 cell line; assay type: cell-based; conditions: Example 6; copper-bound light chain 40 μM; 24 h; light chain not bound with copper ions set to 100%
Procedure: as §1
(§4) All of these cell lines were purchased from ATCC (American Type Culture Collection). […]
(§5) First, after being recovered by thawing the frozen cancer cell lines, the recovered cancer cell lines were seeded in a 96-well plate by 100 μL to be 5×10^3 cells/well (the number of seeds was appropriately adjusted by cell species). […] After culturing was carried out for 24 hours or 48 hours from the addition of the complex-containing composition (after cells are planted and cultivated for 48 hours or 72 hours), a WST-1 reagent (manufactured by Roche Inc.) was added to each well by 10 μL and incubated for 1, 1.5, and 2 hours to form a formazan dye, and then the absorbance (Abs at 450 nm) of the formazan dye was measured (WST assay). […]

[5] = test system: SNU-1 cell line (human metastatic gastric cancer cell line); assay: Cytotoxicity assay (WST assay), SNU-1 cell line; assay type: cell-based; conditions: 24 h, light chain not bound with copper ions set to 100%
Procedure: as §1, §4, §5

[6] = test system: B-16 cell line (mouse melanoma-derived cell) subcutaneous tumor; assay: Cytotoxicity assay in tumor-bearing mouse model, B-16 cell line transplanted; assay type: in vivo; conditions: B-16-transplanted mouse; 32.3 μg per mouse injected into subcutaneous tumor, total of 10 times from 4th day; n=2
Procedure: [Cytotoxicity Assay in Tumor-Bearing Mouse Model]
The cytotoxicity of each complex-containing composition to cancer cells in a tumor-bearing mouse model was tested using tumor-bearing mouse models.
First, the ES-2 cell line (human ovarian cancer-derived cell) or the B-16 cell line (mouse melanoma-derived cell) was subcutaneously transplanted into a mouse to a concentration of 2.5×10^6 cells/mouse. The complex-containing composition was administered against tumors subcutaneously established in the mouse from the 4th day after cancer cell transplantation. The administration of the complex-containing composition was carried out by directly injecting the complex-containing composition into a plurality of sites in the subcutaneous tumor from the outside of the mouse body using a syringe. […]
The volume of the subcutaneous tumor over time was measured from the outside of the mouse body, the volume of the subcutaneous tumor at the 1st day after cancer cell transplantation (next day after transplantation) was set to 1, and the relative tumor volume was determined, so as to evaluate the cytotoxicity of the complex-containing composition to cancer cells in the tumor-bearing mouse model. […]

[7] = copper-bound light chain 12.3 μM

Row | Molecule | Relative cell survival rate ([1]; copper-bound light chain 40 μM) [%] | Relative cell survival rate ([2]; copper-bound light chain 40 μM) [%] | Relative cell survival rate ([3]; copper-bound light chain 40 μM) [%] | Relative cell survival rate ([2]; copper-bound light chain 20 μM) [%] | further results
1 | #7VL: mutant of light chain #7, full-length SEQ ID NO. 4; tested bound with copper ions (protein, bound copper ions; human; Human antibody kappa light chain (#7 VL)) light: EIVMTQSPLSLPVTPGEPASISCRSSQSLLHSNTRNYLDWYLQKPGQSPQLLIYLGSNRASGVPDRFSGSGSGTDFTLKISRVEAEDVGVYYCMQGLQTPRTFGQGTKVEIKRTVAAPSVFIFPPSDEQLKSGTASVVCLLNNFYPREAKVQWKVDNALQSGNSQESVTEQDSKDSTYSLSSTLTLSKADYEKHKLYACEVTHQGLSSPVTKSFNRGEC | 45.9 | 35.7 | 29.4 | – | –
2 | #7VL(I): mutant of light chain #7, full-length SEQ ID NO. 6; tested bound with copper ions (protein, bound copper ions; human; Human antibody kappa light chain (#7 VL(I))) light: EIVMTQSPLSLPVTPGEPASISCRSSQSLLHSNTRNYLDWYLQKPGQSPQLLIYLGSNRASGVPDRFSGSGSGTDFTLKISRVEAEDVGVYYCMQGLQTPITFGQGTKVEIKRTVAAPSVFIFPPSDEQLKSGTASVVCLLNNFYPREAKVQWKVDNALQSGNSQESVTEQDSKDSTYSLSSTLTLSKADYEKHKLYACEVTHQGLSSPVTKSFNRGEC | 79.0 | 53.7 | 58.7 | – | –
3 | #7VL(RL): mutant of light chain #7, full-length SEQ ID NO. 8; tested bound with copper ions (protein, bound copper ions; human; Human antibody kappa light chain (#7 VL(RL))) light: EIVMTQSPLSLPVTPGEPASISCRSSQSLLHSNTRNYLDWYLQKPGQSPQLLIYLGSNRASGVPDRFSGSGSGTDFTLKISRVEAEDVGVYYCMQGLQTPRTFGQGTRLEIKRTVAAPSVFIFPPSDEQLKSGTASVVCLLNNFYPREAKVQWKVDNALQSGNSQESVTEQDSKDSTYSLSSTLTLSKADYEKHKLYACEVTHQGLSSPVTKSFNRGEC | 48.0 | 49.4 | 32.4 | – | –
4 | #7RL I: mutant of light chain #7, full-length SEQ ID NO. 10; tested bound with copper ions (protein, bound copper ions; human; Human antibody kappa light chain (#7 RLI)) light: EIVMTQSPLSLPVTPGEPASISCRSSQSLLHSNTRNYLDWYLQKPGQSPQLLIYLGSNRASGVPDRFSGSGSGTDFTLKISRVEAEDVGVYYCMQGLQTPITFGQGTRLEIKRTVAAPSVFIFPPSDEQLKSGTASVVCLLNNFYPREAKVQWKVDNALQSGNSQESVTEQDSKDSTYSLSSTLTLSKADYEKHKLYACEVTHQGLSSPVTKSFNRGEC | 41.9 | – | – | – | Relative cell survival rate [4]: 77.6%; Relative cell survival rate ([5]; Example 6, copper-bound light chain 40 μM): 52.2%
5 | #11: human antibody κ type light chain, SEQ ID NO. 14; tested bound with copper ions (protein, bound copper ions; human; Human antibody kappa light chain (#11)) light: DIVMTQTPLSLSVTPGQPASISCKSSQSLLHSDGKTYLYWYLQKPGQSPQLLLYEVSSRFSGVPDRFSGSGSGTDFTLKISRVEAEDVGVYYCMQGIHLPYTFGQGTKLEIKRTVAAPSVFIFPPSDEQLKSGTASVVCLLNNFYPREAKVQWKVDNALQSGNSQESVTEQDSKDSTYSLSSTLTLSKADYEKHKLYACEVTHQGLSSPVTKSFNRGEC | – | – | – | 23.8 | Relative cell survival rate [1, 7]: 73.2%; Relative cell survival rate ([1]; copper-bound light chain 20 μM): 54.5%; Relative cell survival rate [2, 7]: 58.5%
6 | #4: human antibody κ type light chain, SEQ ID NO. 12; tested bound with copper ions (protein, bound copper ions; human; Human antibody kappa light chain (#4)) light: DVVMTQTPLSLSVTPGEPASISCRSTQSLLDSDGVNPSFDWYVQKPGQSPQLLIHRGFYRASGVPDRFSGSGSGTDFTLRISRVEAEDVGVYYCMQRIEFPLTFGGGTKVELKRTVAAPSVFIFPPSDEQLKSGTASVVCLLNNFYPREAKVQWKVDNALQSGNSQESVTEQDSKDSTYSLSSTLTLSKADYEKHKLYACEVTHQGLSSPVTKSFNRGEC | – | – | – | 50.3 | Relative cell survival rate ([1]; copper-bound light chain 25.2 μM): 81.8%; Relative cell survival rate ([1]; copper-bound light chain 34.9 μM): 79.1%; Relative cell survival rate ([3]; copper-bound light chain 4 μM): 69.6%; Relative cell survival rate ([3]; copper-bound light chain 20 μM): 42.3%; Relative cell survival rate ([3]; copper-bound light chain 40.4 μM): 24.3%; Relative cell survival rate ([5]; Example 7, Table 5, copper-bound light chain 39.4 μM): 29.5%; Relative tumor volume at 15 days after transplantation, compared to control group (PBS) [6]: about ⅓
